Experimental data reported in publication PMC11440508, “Dually Labeled Neurotensin NTS1R Ligands for Probing Radiochemical and Fluorescence-Based Binding Assays” (Journal of Medicinal Chemistry, 2024).
Starred links: 1 amine or outer side, 2 acyl side, 3 side chain; linkers in the order of their positions; H or OH if unused. Non-standard residues stand in square brackets, D forms with d. No end group written: not given here. *: point of attachment. 5‑TAMRA = CN(C)c1ccc2c(-c3ccc(C(=O)*)cc3C(=O)[O-])c3ccc(N(C)C)cc3[o+]c2c1; Propanoyl(3-triazol-4-yl) = O=C(CCc1cn([*:1])nn1)[*:2]; Gly(piperidin-4-yl) = N[C@H](C(=O)O)C1CCNCC1; Pent4ynoyl = C#CCCC(=O)*; Pra = C#CC[C@H](N)C(=O)O

Assays:
[1] = target: T1, human neurotensin receptor type 1 (hNTS1R), endogenous in HT-29 colon carcinoma cells (human (endogenous in HT-29), UniProt P30989 1-418); assay: radioligand binding; competition with [^3H]UR-MK300 at intact hNTS1R-expressing HT-29 cells, 23 ± 1 °C; pIC50 converted to pKi (Cheng–Prusoff); details: one partner purified
T1 construct: human neurotensin receptor type 1 (hNTS1R), endogenously expressed in HT-29 colon carcinoma cells; also called HT-29 cells; source: endogenous, intact HT-29 colon carcinoma cells

[2] = target: T2, human neurotensin receptor type 1 (hNTS1R), stably expressed in CHO cells (human, UniProt P30989 1-418); assay: cell-based or functional assay
[3] = target: T3, human neurotensin receptor type 2 (hNTS2R) in homogenates of HEK293T cells (human, UniProt O95665 1-410); assay: radioligand binding; competition with [^3H]UR-MK300 at homogenates of HEK293T cells transiently transfected with hNTS2R; Tris buffer (50 mM Tris HCl, 1 mM EDTA, pH 7.4) with 0.1% BSA; details: one partner purified
T3 construct: human neurotensin receptor type 2 (hNTS2R); also called HEK293T-hNTS2R cells; source: HEK293T, transiently transfected, homogenates

[4] = target: T1, human neurotensin receptor type 1 …; assay: flow cytometry on cells; equilibrium saturation binding at intact suspended CHO-hNTS1R or HT-29 cells, 96-well plates, DPBS1, 23 ± 1 °C, homogeneous; unspecific binding with 1 μM NT(8–13); details: one partner purified
[5] = target: T2, human neurotensin receptor type 1 …; assay: as above; details: one partner purified
[6] = target: T4, hNTS1R displayed on budded baculovirus particles (NTS1R-BBV) (human, UniProt P30989 1-418); assay: fluorescence polarisation; fluorescence anisotropy, association and dissociation (started with 1 μM SR142948) at hNTS1R-displaying BBVs, 27 °C, DPBS2; kon and Kd(kin) from a fit with koff constrained; details: one partner purified
T4 construct: human neurotensin receptor type 1 (hNTS1R) from pcDNA3.1-hNTS1-NlucC, subcloned into pIMACE-CMVintP10; also called hNTS1R-displaying BBVs; hNTS1R-Nluc

[7] = target: T4, hNTS1R displayed on budded baculovirus …; assay: fluorescence polarisation; fluorescence anisotropy, equilibrium binding: fixed ligand (0.3 or 1 nM), increasing amounts of hNTS1R-displaying BBVs, signal at 10 min, 27 °C, DPBS2; unspecific binding with 1 μM SR142948; details: one partner purified
[8] = target: T2, human neurotensin receptor type 1 …; assay: flow cytometry on cells; association (1 nM ligand) and dissociation (10 nM preincubation, started with ca. 25 μM NT(8–13)) at intact suspended CHO-hNTS1R cells, 5 mL tubes, DPBS1, 23 ± 1 °C; kon and Kd(kin) calculated; details: one partner purified
[9] = target: T2, human neurotensin receptor type 1 …; assay: high-content imaging (HCI) of fluorescent ligand on cells; association (2.5 nM ligand) and dissociation (started with 1 μM NT(8–13)) at intact adherent CHO-hNTS1R cells, DPBS1, 23 ± 1 °C; kon = (kobs – koff)/[FL], Kd(kin) = koff/kon; details: one partner purified
[10] = target: T1, human neurotensin receptor type 1 …; assay: high-content imaging (HCI) of fluorescent ligand on cells; equilibrium saturation binding at intact adherent CHO-hNTS1R or HT-29 cells, DPBS1 with 0.1% BSA, 23 ± 1 °C, washing step before reading; unspecific binding with 1 μM NT(8–13); details: one partner purified
[11] = target: T2, human neurotensin receptor type 1 …; assay: as above; details: one partner purified
[12] = target: T2, human neurotensin receptor type 1 …; assay: radioligand binding; saturation binding at intact suspended CHO-hNTS1R cells, 96-well plates, filtration, DPBS1 with 1% BSA, 23 ± 1 °C; details: one partner purified
[13] = target: T1, human neurotensin receptor type 1 …; assay: radioligand binding; saturation binding at intact adherent cells (CHO-hNTS1R or HT-29), DPBS1 with 1% BSA, 23 ± 1 °C; radioligand 1:1 diluted with its cold analogue; details: one partner purified
[14] = target: T2, human neurotensin receptor type 1 …; assay: as above; details: one partner purified
[15] = target: T2, human neurotensin receptor type 1 …; assay: radioligand binding; association (1.3 nM [^3H]13, 1.1 nM [^3H]18; biphasic fit) and dissociation (started with 1 μM NT(8–13)) at intact adherent CHO-hNTS1R cells, DPBS1, 23 ± 1 °C; kon(fast) and Kd(kin) calculated; details: one partner purified
[16] = target: T2, human neurotensin receptor type 1 …; assay: radioligand binding; association (1.8 nM [^3H]13, 1.2 nM [^3H]18; 96-well plates; biphasic fit) and dissociation (50 mL falcon tubes, started with 25 μM NT(8–13)) at intact suspended CHO-hNTS1R cells, DPBS1, 23 ± 1 °C; kon(fast) and Kd(kin) calculated; details: one partner purified
[17] = target: T2, human neurotensin receptor type 1 …; assay: radioligand binding; saturation binding at membranes of CHO-hNTS1R cells, DPBS1 with 50 μM GppNHp and 100 μg/mL saponin, 23 °C; details: one partner purified
[18] = target: T2, human neurotensin receptor type 1 …; assay: radioligand binding; association (2.5 nM) and dissociation (12 nM preincubation, 30 min) at membranes of CHO-hNTS1R cells, DPBS1 with 50 μM GppNHp and 100 μg/mL saponin, 23 °C; kon and Kd(kin) calculated; details: one partner purified

T2 sequence (P30989 whole entry): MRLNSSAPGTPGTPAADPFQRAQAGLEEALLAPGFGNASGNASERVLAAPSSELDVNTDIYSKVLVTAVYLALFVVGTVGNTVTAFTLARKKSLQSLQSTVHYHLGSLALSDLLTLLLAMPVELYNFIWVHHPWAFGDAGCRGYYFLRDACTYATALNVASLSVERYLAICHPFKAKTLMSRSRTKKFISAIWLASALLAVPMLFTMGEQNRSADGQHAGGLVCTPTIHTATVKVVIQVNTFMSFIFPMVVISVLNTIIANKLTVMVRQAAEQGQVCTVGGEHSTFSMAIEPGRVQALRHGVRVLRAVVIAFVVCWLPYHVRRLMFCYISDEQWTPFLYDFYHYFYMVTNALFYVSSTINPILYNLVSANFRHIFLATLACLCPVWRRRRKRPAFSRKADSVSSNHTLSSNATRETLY
T4 sequence (P30989 whole entry): as above
T1 sequence (P30989 whole entry): as above
T3 sequence (O95665 whole entry): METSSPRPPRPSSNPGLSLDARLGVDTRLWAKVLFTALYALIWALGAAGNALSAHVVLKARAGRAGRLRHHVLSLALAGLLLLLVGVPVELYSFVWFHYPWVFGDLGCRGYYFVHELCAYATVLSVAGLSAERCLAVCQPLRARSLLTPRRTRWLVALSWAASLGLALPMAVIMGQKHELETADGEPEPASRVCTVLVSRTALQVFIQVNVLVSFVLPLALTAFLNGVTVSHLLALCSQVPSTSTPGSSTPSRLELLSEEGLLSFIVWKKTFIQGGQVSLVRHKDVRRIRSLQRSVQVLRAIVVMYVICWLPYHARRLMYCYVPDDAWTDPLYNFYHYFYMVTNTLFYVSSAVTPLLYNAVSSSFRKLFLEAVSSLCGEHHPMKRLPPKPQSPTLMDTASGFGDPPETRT

B1: N^α-(Pent-4-ynoyl)-Lys-Pro-Arg-Arg-Pro-Tyr-Ile-Leu (7) (peptide)
peptide: Pent4ynoyl-KPRRPYIL
notes: neurotensin NT(6–13), printed in three-letter code; numbers count on: the mature neurotensin; also called peptide 7; source: synthetic peptide (SPPS, preparative HPLC)
**Q.** Which Ki [1] does the source give for B1 here?
**A.** Its Ki is 0.54 nM.

B2: N^α-(Pent-4-ynoyl)-2-(piperidin-4-yl)-Gly-Pro-N^ω-[(4-aminobutyl)aminocarbonyl]Arg-Arg-Pro-Tyr-Ile-Leu (6) (peptide)
chain: XPRRPYIL
modifications: N-terminal N^α-(pent-4-ynoyl); position 6 (X) = 2-(piperidin-4-yl)-Gly (pipGly); Arg8 = N^ω-[(4-aminobutyl)aminocarbonyl]Arg
**Q.** B2 was tested. Which “EC50 of NTS1R agonism, Fura-2 Ca^2+ assay at CHO-NTS1R cells” value [2] did it give?
**A.** The value was 0.0065 nM.

**Q.** And the Ki [1]?
**A.** The Ki was 0.64 nM.

B3: 5-TAMRA-labeled, propionylated NT(6–13) derivative 15 (peptide)
peptide: {5‑TAMRA-Propanoyl(3-triazol-4-yl)}-[dK](propanoyl)PRRPYIL
notes: neurotensin NT(6–13) with D-Lys at position 6, printed in three-letter code; numbers count on: the mature neurotensin; also called peptide 15; source: synthetic peptide (from 8 by propionylation and click reaction, preparative HPLC)
**Q.** How did the Ki [1] turn out when B3 was run?
**A.** Its Ki is 3 nM.

**Q.** Which Ki [1] does the source give for {4‑aminobutanoyl}-[Pra][Gly(piperidin-4-yl)]PRRPYIL [N^α-(4-Aminobutanoyl)-2-(prop-2-ynyl)-Gly-2-(piperidin-4-yl)-Gly-Pro-Arg-Arg-Pro-Tyr-Ile-Leu (9)] here?
**A.** Its Ki is 0.33 nM.

B4: 5-TAMRA-labeled, propionylated NT(6–13) derivative 13 (UR-FE051) (peptide)
chain: XPRRPYIL
modifications: N-terminus: 5-TAMRA attached through a 3-(1H-1,2,3-triazol-4-yl)propanoyl group; position 6 (X) = 2-(piperidin-4-yl)-Gly (pipGly); Arg8 = N^ω-[(4-(N-propanoyl)aminobutyl)aminocarbonyl]Arg
**Q.** B4 was tested. Which “EC50 of NTS1R agonism, Fura-2 Ca^2+ assay at CHO-NTS1R cells” value [2] did it give?
**A.** Its value is 0.05 nM.

**Q.** And the Ki [1]?
**A.** The Ki was 1.1 nM.

**Q.** What about the Ki [3] of the same binder?
**A.** Its Ki is 2.4 nM.

**Q.** And the Kd [4]?
**A.** Its Kd is 0.25 nM.

**Q.** What about the Kd [5] of the same binder?
**A.** The Kd was 2.6 nM.

**Q.** And the Kd [6]?
**A.** The Kd was 1 nM.

**Q.** What about the koff [6] of the same binder?
**A.** Its koff is 0.0102 s⁻¹.

**Q.** And the kon [6]?
**A.** The kon was 1.67e+07 M⁻¹ s⁻¹.

**Q.** And the Kd [7]?
**A.** Its Kd is 1.3 nM.

**Q.** What about the Kd [8] of the same binder?
**A.** Its Kd is 0.041 nM.

**Q.** What about the koff [8] of the same binder?
**A.** Its koff is 0.000333 s⁻¹.

**Q.** And the kon [8]?
**A.** The kon was 8e+06 M⁻¹ s⁻¹.

**Q.** What about the Kd [9] of the same binder?
**A.** The Kd was 2.8 nM.

**Q.** What about the koff [9] of the same binder?
**A.** The koff was 0.000733 s⁻¹.

**Q.** What about the kon [9] of the same binder?
**A.** Its kon is 267000 M⁻¹ s⁻¹.

**Q.** And the Kd [10]?
**A.** The Kd was 4.7 nM.

**Q.** What about the Kd [11] of the same binder?
**A.** The Kd was 1.1 nM.

B5: N^α-(Pent-4-ynoyl)-D-Lys-Pro-Arg-Arg-Pro-Tyr-Ile-Leu (8) (peptide)
peptide: Pent4ynoyl-[dK]PRRPYIL
notes: neurotensin NT(6–13) with D-Lys at position 6, printed in three-letter code; numbers count on: the mature neurotensin; also called peptide 8; source: synthetic peptide (SPPS, preparative HPLC)
**Q.** How did the Ki [1] turn out when B5 was run?
**A.** Its Ki is 0.85 nM.

B6: N^α-(Pent-4-ynoyl)-2-(piperidin-4-yl)-Gly-Pro-N^ω-[(4-aminobutyl)aminocarbonyl]Arg-Arg-Pro-β,β-dimethyl-D-Tyr-Ile-Leu (10b) (peptide)
chain: XPRRPYIL
modifications: N-terminal N^α-(pent-4-ynoyl); position 6 (X) = 2-(piperidin-4-yl)-Gly (pipGly); Arg8 = N^ω-[(4-aminobutyl)aminocarbonyl]Arg; position 11 = β,β-dimethyl-D-Tyr
**Q.** B6 was tested. Which Ki [1] did it give?
**A.** The Ki was 140 nM.

B7: [^3H]18, tritiated analogue of the Cy3B-labeled peptide 18 (peptide)
chain: XPRRPYIL
modifications: as 18, with a [^3H]propionyl instead of the propionyl group at the N^ω-carbamoylated Arg8; N-terminal Cy3B through a triazolylpropanoyl group; position 6 (X) = pipGly; position 11 = …
**Q.** How did the Kd [12] turn out when B7 was run?
**A.** Its Kd is 1.2 nM.

**Q.** What about the Kd [13] of the same binder?
**A.** The Kd was 1.9 nM.

**Q.** And the Kd [14]?
**A.** The Kd was 1.1 nM.

**Q.** What about the koff [15] of the same binder?
**A.** The koff was 0.000433 s⁻¹.

**Q.** What about the koff [16] of the same binder?
**A.** Its koff is 0.0005 s⁻¹.

B8: 5-TAMRA-labeled, propionylated NT(6–13) derivative 16 (peptide)
chain: {4‑(N-propanoyl)aminobutanoyl}-X[Gly(piperidin-4-yl)]PRRPYIL
modifications: not fully specified (residue 1); printed as *N*^α^-[(4-(*N*-Propanoyl)aminobutanoyl)]-2-(1-(1-*N*-((1-carboxylato-2-(6-(dimethylamino)-3-(dimethyliminio)-3*H*-xanthen-9-yl)phen-5-yl)1-oxomethyl)aminoprop-3-yl-1*H*-1,2,3-triazol-4-yl)methyl)-Gly-2-(piperidin-4-yl)-Gly-Pro-Arg-Arg-Pro-Tyr-Ile-Leu
**Q.** For B8, which Ki [1] is on record?
**A.** Its Ki is 0.77 nM.

B9: [^3H]13, tritiated analogue of the 5-TAMRA-labeled peptide 13 (peptide)
chain: XPRRPYIL
modifications: as 13, with a [^3H]propionyl instead of the propionyl group at the N^ω-carbamoylated Arg8; N-terminal 5-TAMRA through a triazolylpropanoyl group; position 6 (X) = pipGly
**Q.** How did the Kd [17] turn out when B9 was run?
**A.** Its Kd is 6.2 nM.

**Q.** What about the Kd [12] of the same binder?
**A.** Its Kd is 1.8 nM.

**Q.** What about the Kd [13] of the same binder?
**A.** The Kd was 1.2 nM.

**Q.** What about the Kd [14] of the same binder?
**A.** Its Kd is 1.3 nM.

**Q.** What about the Kd [18] of the same binder?
**A.** The Kd was 2.7 nM.

**Q.** What about the koff [18] of the same binder?
**A.** The koff was 0.00617 s⁻¹.

**Q.** And the kon [18]?
**A.** The kon was 2.17e+06 M⁻¹ s⁻¹.

**Q.** What about the koff [15] of the same binder?
**A.** The koff was 0.000233 s⁻¹.

**Q.** And the koff [16]?
**A.** The koff was 0.0006 s⁻¹.

B10: N^α-(Pent-4-ynoyl)-2-(piperidin-4-yl)-Gly-Pro-N^ω-[(4-aminobutyl)aminocarbonyl]Arg-Arg-Pro-β,β-dimethyl-L-Tyr-Ile-Leu (10a) (peptide)
chain: XPRRPYIL
modifications: N-terminal N^α-(pent-4-ynoyl); position 6 (X) = 2-(piperidin-4-yl)-Gly (pipGly); Arg8 = N^ω-[(4-aminobutyl)aminocarbonyl]Arg; position 11 = β,β-dimethyl-L-Tyr
**Q.** Which results are given for B10?
**A.** EC50 of NTS1R agonism, Fura-2 Ca^2+ assay at CHO-NTS1R cells [2]: 0.32 nM; Ki [1]: 1.1 nM

B11: 5-TAMRA-labeled, propionylated NT(6–13) derivative 14 (peptide)
peptide: {5‑TAMRA-Propanoyl(3-triazol-4-yl)}-K(propanoyl)PRRPYIL
notes: neurotensin NT(6–13), printed in three-letter code; numbers count on: the mature neurotensin; also called peptide 14; source: synthetic peptide (from 7 by propionylation and click reaction, preparative HPLC)
**Q.** Which Ki [1] does the source give for B11 here?
**A.** The Ki was 1.5 nM.
